Measurements from paper PMC4935573.
Where “and” joins values, the source holds several entries; their conditions need not be identical. Identical values can stand only once.

Key:
[1] = target: regulatory domain of human tryptophan hydroxylase 1, C64S (RDTPH1 C64S) (human) (UniProt P17752); assay: SEC
[2] = target: regulatory domain of human tryptophan hydroxylase 1, C64S (RDTPH1 C64S) (human) (UniProt P17752); assay: AUC
[3] = target: regulatory domain of human tryptophan hydroxylase 1, C64S (RDTPH1 C64S) (human) (UniProt P17752); assay: SEC; remark: listed apart in the source

stoichiometry N [1]: 2 and 4 | stoichiometry N [2]: 2 | stoichiometry N [3]: 2
Substance: regulatory domain of human tryptophan hydroxylase 1, C64S (RDTPH1 C64S) (from UniProt P17752 1-101) (domain or fragment)
